Key:
[1] = biological target: 1PGE-THIVC SOSIP.664 gp140 Env trimer (HIV-1 clade C); assay: negative-stain EM; SEC-purified trimers at 0.01-0.03 mg/ml on carbon-coated grids, 2% uranyl formate, 2D class averages
[2] = biological target: VRC01; assay: D-7324 capture ELISA; details: value read at the highest antibody concentration, VRC01 10 µg/ml; parent: est. 2.8; read off a plot
[3] = biological target: CD4-IgG2 (UniProt P01730); assay: D-7324 capture ELISA; details: value read at the highest concentration, CD4-IgG2 10 µg/ml; parent: est. 2.5; read off a plot
[4] = biological target: PGT145; assay: D-7324 capture ELISA; details: value read at the highest antibody concentration, PGT145 10 µg/ml; parent: est. 1.3; read off a plot

Substance: 1PGE-THIVC SOSIP.664 gp140 Env trimer (complex)
- stoichiometry N [1]: 3

Substance: 1PGE-THIVC SOSIP.664 gp140 Env trimer N279E
- response [2]: 0.93 A450
- response [3]: 0.98 A450
- response [4]: 1.3 A450

Reference: PMC8055034
